Experimental data from article PMC9859039, “The conserved centrosomin motif, γTuNA, forms a dimer that directly activates microtubule nucleation by the γ-tubulin ring complex (γTuRC)” (eLife, 2022).

B1: Strep-His-TEV-HaloTag-3C-human γTuNA (human CDK5RAP2 aa 53–98), wildtype [human] / itself (parent)
chain: SPTRARNMKDFENQITELKKENFNLKLRIYFLEERMQQEFHGPTEH
B2: Strep-His-TEV-HaloTag-3C-Xenopus γTuNA (Xenopus Cdk5rap2 aa 56–101), wildtype [Xenopus laevis] / itself (parent)
chain: MKDFEKQIAELKKENFNLKLRIYFLEEQVQQKCDNSSEDLYRMNIE

Variants of: B1
Test: size-exclusion chromatography (self-association / dimerization)
Conditions: with itself; 50 µM (monomer); Superdex 200 increase 10/300 GL; read off a plot

screen value [mL] | Variant
15.1 | chain 1 I15D L18D
15.1 | chain 1 I15A L18A

Same assay, conditions: with itself; 50 µM (monomer); Superdex 200 increase 10/300 GL; main peak, a minor peak near 12.9 mL is also drawn; read off a plot

screen value [mL] | Variant
15.1 | chain 1 F11D I15D L18D

Same assay, conditions: with itself; 50 µM (monomer); Superdex 200 increase 10/300 GL; main peak, a minor peak near 13.1 mL is also drawn; read off a plot

screen value [mL] | Variant
15 | chain 1 F11A I15A L18A L25A

Variants of: B2
Test: as above
Conditions: with itself; 50 µM (monomer); Superdex 200 increase 10/300 GL; read off a plot

Variant | screen value [mL]
chain 1 I8D L11D | 15
chain 1 I8A | 13.5
chain 1 F4A | 13.4
chain 1 L18A | 14.2

The next lines start with the values.

screen value [mL] | Variant
14 | chain 1 L11A
13.3 | chain 1 F16A

Same assay, conditions: with itself; 50 µM (monomer); Superdex 200 increase 10/300 GL; main peak, a minor shoulder near 13.2 mL is also drawn; read off a plot

screen value [mL] | Variant
14.2 | chain 1 L18A
